Test results taken from paper PMC10992053, “Rationally introducing non-canonical amino acids to enhance catalytic activity of LmrR for Henry reaction” (Bioresources and Bioprocessing, 2024).

Substrate: O=Cc1ccc([N+](=O)[O-])cc1
Test: purified protein
Conditions: nitromethane 1 M (excess), 3-18 mM aldehyde, 0.3 mg/mL enzyme, 40 °C, 5 min
Excerpt: Henry reaction, product by HPLC, Michaelis-Menten fit on LmrR (Lactococcal multidrug resistance Regulator)

B1: LmrR (Lactococcal multidrug resistance Regulator) (Lactococcus cremoris subsp. cremoris MG1363) (protein)
chain: MAEIPKEMLRAQTNVILLNVLKQGDNYVYGIIKQVKEASNGEMELNEATLYTIFKRLEKDGIISSYWGDESQGGRRKYYRLTEIGHENMRLAFESWSRVDKIIENLEANKKSEAIK
- Km: 9.30 mM
- Vmax: 1290 µM/min
- kcat: 0.967 s⁻¹
- kcat/Km: 104 M⁻¹ s⁻¹
